Molecular target: sVP40Δ43 R214A (Sudan virus) (UniProt Q5XX06)
Assay: SEC

“sVP40Δ43 R214A (from UniProt Q5XX06 44-326) (domain or fragment)” was tested, and the octameric percentage of total VP40 AUC was 50%.

— PMC11292656
